Assay results taken from publication PMC12000384, “Competition for the nascent leading strand shapes the requirements for PCNA loading in the replisome” (The EMBO Journal, 2025).

Biological target: T1, CMG (Cdc45-MCM-GINS) helicase (S. cerevisiae, UniProt Q08032 1-650; P29469 1-868; P24279 1-971; P30665 1-933; P29496 1-775; P53091 …)
T1 construct: Cdc45, S. cerevisiae; Mcm2, S. cerevisiae; Mcm3, S. cerevisiae; Mcm4, S. cerevisiae; Mcm5, S. cerevisiae; Mcm6, S. cerevisiae; Mcm7, S. cerevisiae; GINS subunit, S. cerevisiae; 11-subunit helicase; The two strains express the same chains; in yVA94 endogenous Ctf4-2xStrep was depleted on Strep-Tactin resin; also called Ctf4-depleted CMG; wild-type CMG; source: S. cerevisiae, overexpressed, …
Assay: cryo-EM structure; replisome reconstituted on ice on forked DNA with 0.5 mM AMP-PNP from 150 nM CMG (Ctf4-depleted), Pol ε^exo-, Ctf18-RFC, Tof1-Csm3, Ctf4 and Mrc1 in 25 mM HEPES-NaOH pH 7.6, 150 mM NaOAc, 15 mM Mg(OAc)2, 0.5 mM TCEP; 10-30% glycerol gradient with glutaraldehyde and BS3 cross-linking
Details: both partners purified

B1: Ctf4 (natural protein, S. cerevisiae, UniProt Q01454 1-927, looked up)
chain: MVSVIDKLVFDFGGKTLVSLAPDNNTLCVANKNGLTKILKTNNPEEEPETLDSSKLVSSIKCYSNSHFLMTTMQGDALRYNIDSSQEELLARFALPLRDCCVIHSGKMAVFGGDDLELILLELDDETHKKHAIKIDEQVSQISYNSQMNILAVSMINGKVQIFSLTSTIPNKVHELNDYIVANSYDDTHRDKILSNMMDDIDKDNDNDLSETADPDENNVADPEFCAANRICTRVAWHPKGLHFALPCADDTVKIFSIKGYSLQKTLSTNLSSTKAHFIDLQFDPLRGTYIAAVDLNNKLTVWNWETSEIHYTREFKRKITNIAWKIQADSKTLDLVLGTWSGSIAIVQNLAESVVSNIPDQSVAESSTKHGLFVDSESDLENLEGNDDINKSDKLFSDITQEANAEDVFTQTHDGPSGLSEKRKYNFEDEEDFIDDDDGAGYISGKKPHNEHSYSRVHKTHSFPISLANTGKFRYMPFSPAGTPFGFTDRRYLTMNEVGYVSTVKNSEQYSITVSFFDVGRFREYHFEDLFGYDLCFLNEKGTLFGQSKTGQIQYRPHDSIHSNWTKIIPLQAGERITSVAATPVRVIVGTSLGYFRSFNQFGVPFAVEKTSPIVALTAQNYRVFSVHYSQFHGLSYSLSELGTSSKRYYKRECPLPMSLPNINSDMKKDANLDYYNFNPMGIKSLFFSSYGDPCIFGSDNTLLLLSKWRSPEESKWLPILDSNMEIWKMSGGKETTDIHVWPLALAYDTLNCILVKGKHIWPEFPLPLPSEMEIRMPVFVKSKLLEENKAILNKKNEIGADTEAEEGEEDKEIQIPVSMAAEEEYLRSKVLSELLTDTLENDGEMYGNENEVLAALNGAYDKALLRLFASACSDQNVEKALSLAHELKQDRALTAAVKISERAELPSLVKKINNIREARYEQQLK
notes: Ctf4, S. cerevisiae; source: purified as in Yeeles et al, 2015
B1: binds.

B2: Tof1-Csm3 (complex, S. cerevisiae)
chain 1: MSADLQQGTTNAADFSLTVLRARIALLATAIGGPDYTSQIDPPPYKLGDDCLACLKDLKRWFKLVDDQQKRWDVAMAVAEYRILTDDLLPILIDWENKCSLAAKLAKNNPDHEEFRNKAYYDKIALNCLQLLVLMTWPLIVTEQSSSNQITLYGELKKHQLVYKKTILSMESGKVLRAAIRLALDVIKIDRLSRTPRDNMVLKLVLNFFRNVIAIEPGEFTINTKKSMPKKGITSIDTLPPNVSMDDISLNTVISSFHKNKVFGFLLTLTSSLSKEFDQDFINIPLLEIMFYFTKDVNQELLFPRQFETGTHSKVVNKNESSSANNIVTSAGFELSKLLQKEHQMRKNVIKHTSARHSRFGGLLSIQTPDKTRLTVSGSQALVDEKIALQKLDDSKKWNKRIIKKHQSVAAEGLPNSLLNSQTGKAIFFTESNGKHFKEFINNFIDSGFNILLHSVTNYFTTEQDRMVTLEQVEYLLFFAWFVKYQLLRSKIDNSADIKQVSEALKEVTFILVSSLLRSAYDLKNWTVTHAGMIAFNELLNLVSRTKAAQEEDSTDIEFIVSRLFSDERIQLLSNLPKIGSKYSLQFMKSCIELTHSVLKVLEQYSDDKTLVIEGKSRRQKKFNISEGDITKLIEEENVDRDEALDILTSSLRSIEVNFQKVQANYMTEPVIETYINFLERFRELEDDSIKKVFSFFHRVFVQAKEQALLFRFDLIILLREMLSPDGLDRMSRSRKYVSQFSDYFLARLKKRLKKSPAWFVGLLFPPLHNSEVGFYQRYGEYNVLNNESMYAAPASQFKPIPDEEALPPSILLDMKYGVLVSTLLDDGKTELLDQLLKHITHTLDIFKSWLTVNVNAGKETVNPPNEYFTLTGVLNNDPIFKDKDYRALLLLIGYSIPRKINEPCFLPGTVEVSDLTVSCELVKKYLSTPFETPNGLPSSSYLLRVRSEKDSFSHNEQDGWEGDDDYDYNDPYIVPDDQILSKSDAAYFKDLDNNASDKLKGTKFSKGIARSKKKDKRKRRKGEAKTNLPMFGDQDDERPQTVRERHGVFSKEFISDSEDDEDLMNPIFFENETYMRWLLDKNNGQLTEDRYIQFAKFAAERMNNGGVVTGDYTSLFGGSIPSIESIRATESSSFAPDKSLISLASHVASEMSIFDVNNNNNNQLSDDDVNSESRNSLGSSQPSNSQNMFQSEVYSRKESTKRSLEASAADESDEDEEAIRLFGKKSRVVLSQGDSDD
chain 2: MDQDFDSLLLGFNDSDSVQKDPTVPNGLDGSVVDPTIADPTAITARKRRPQVKLTAEKLLSDKGLPYVLKNAHKRIRISSKKNSYDNLSNIIQFYQLWAHELFPKAKFKDFMKICQTVGKTDPVLREYRVSLFRDEMGMSFDVGTRETGQDLERQSPMVEEHVTSAEERPIVADSFAQDKRNVNNVDYDNDEDDDIYHLSYRNRRGRVLDERGNNETVLNNVVPPKEDLDALLKTFRVQGPVGLEENEKKLLLGWLDAHRKMEKGSMTEEDVQLIQSLEEWEMNDIEGQHTHYDLLPGGDEFGVDQDELDAMKEMGF
notes: Tof1, S. cerevisiae; Csm3, S. cerevisiae; source: purified as in Yeeles et al, 2017
B2: binds.
